Measured values taken from patent US8034572B2, “Receptor for GDNF family ligands” (priority 2006, dated 2011).

Columns and labels:
[1] = tested on: E15 mouse cortical neurons; assay: Cortical neurons migration assay (transfilter); type: cell-based; settings: 16 hours
Method: Cortical lobes from E15 mouse brains were dissected under a stereomicroscope and dissociated using a 20 G needle and a syringe in DMEM containing 10% FCS. The cortical preparation was spun down at 1000 rpm for 5 min and the pellet was washed with culture medium containing serum. The pellet was carefully resuspended and the preparation was allowed to sediment for five more minutes before the cleared supernatant was collected. The cells in the supernatant were allowed to recover in serum-containing DMEM for 30-60 min. Recovered cells were washed once with the assay medium (DMEM with 10 mg/ml BSA, L-glutamine and antibiotics) and resuspended in the same medium.
Transwell filters (Costar) with 12-μm pore size or polycarbonate filters saturated with 100 μg/ml poly-L-lysine were coated with GDNF or ΔN-GDNF in 1 μM, 10 μM and 100 μM concentrations overnight at 4° C. and equilibrated with assay medium 30 min in +37° C. incubator prior to use. The spontaneous and random migratory activity of neural cells was controlled with uncoated filters.
Embryonic cortical cells were plated on the filters at 150000 cells per filter and left to migrate for 16 hours. […] The number of cells that had migrated to the coated surface of the filters was calculated using the inverted light microscope Olympus IX71.

[2] = Binding of ^125I-labeled GFLs to heparin-sepharose column, step NaCl elution
Method: GFL iodination was performed as described (Lindahl et al., 2001). Heparin-sepharose column (Amersham Biosciences) chromatography was performed to assess GFL binding to heparin. GDNF, ARTN, NRTN and PSPN were purchased from PeproTech, Ltd. or R&D Systems, Inc. GFLs were enzymatically labeled with carrier-free [^125I]NaI (Amersham Biosciences) by the lactoperoxidase method to a specific activity of 100000-200000 cpm/ng as described elsewhere (Lindahl et al., 2001). 15000-20000 cpm of iodinated GFLs, together with 10 μg of the same unlabeled protein as a carrier, were injected into a 1 ml heparin-sepharose column (Amersham Biosciences) in phosphate buffer pH 7.2 containing 100 mM NaCl and 10 mg/ml of BSA. After washing with 5 volumes of the same buffer, iodinated GFLs were eluted from the column by step elution (2 ml) with increasing NaCl concentration. The resulting fractions were counted on Rackbeta 1214 (LKB/Wallac) scintillation counter.

NaCl concentration at elution from heparin-sepharose column ([2]; ^125I-GFLs, step NaCl gradient): 0.75 to 1 M | binding to heparin-sepharose column ([2]; ^125I-labeled GFLs): bind strongly to heparin
B1: GDNF: Glial cell line-derived neurotrophic factor, secreted growth factor, GDNF family ligand (protein)
chain: SPDKQMAVLPRRERNRQAAAANPENSRGKGRRGQRGKNRGCVLTAIHLNVTDLGLGYETKEELIFRYCSGSCDAAETTYDKILKNLSRNRRLVSDKVGQACCRPIAFDDDLSFLDDNLVYHILRKHSAKRCGCI
migration of syndecan-3-deficient embryonic cortical neurons ([1]; filters coated with GDNF): strongly impaired | migration of wild type embryonic cortical cells ([1]; filters coated with protein): stimulated massive migration
